The results in this text go back to patent publication US20240026017A1 (Kyowa Kirin, published 2024).

In test [1] the target is T1, human CCR3 (human, UniProt P51677 1-355).
T1 construct: whole, on cells; also called hCCR3; CHO-S-hCCR3 (expressing cells)
T1 sequence (looked up): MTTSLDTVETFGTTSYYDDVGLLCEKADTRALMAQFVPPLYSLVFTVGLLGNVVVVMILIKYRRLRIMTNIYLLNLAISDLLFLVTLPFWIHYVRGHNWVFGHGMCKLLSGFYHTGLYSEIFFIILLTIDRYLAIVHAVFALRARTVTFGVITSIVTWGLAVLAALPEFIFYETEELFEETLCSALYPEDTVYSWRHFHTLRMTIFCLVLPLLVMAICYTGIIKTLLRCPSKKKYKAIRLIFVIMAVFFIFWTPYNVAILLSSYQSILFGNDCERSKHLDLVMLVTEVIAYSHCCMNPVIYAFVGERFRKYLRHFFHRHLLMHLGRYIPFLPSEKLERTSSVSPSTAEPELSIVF
Nature of the test: flow cytometry on CHO-S-hCCR3 cells, hybridoma culture supernatant diluted 10-fold. The source says: (§1) As test antibodies, each hybridoma culture supernatant diluted 10-fold, an existing mouse anti-human CCR1 monoclonal antibody 53504 antibody (R & D Technologies), and a mouse anti-human CCR3 monoclonal antibody 444-11 antibody (MBL) were used.
(§2) Regarding the measurement results, the fluorescence intensity when a certain cell was stained with a certain test antibody (each hybridoma culture supernatant, 53504 antibody or 444-11 antibody) and a secondary antibody was divided by the fluorescence intensity when the cell was stained only with the secondary antibody. […] In Table 2, the results are indicated as A and B, respectively.
In general terms: In flow cytometry, cells or beads pass a laser one at a time.

For test [2], the target named is T2, NC3-mCCR1 (chimeric receptor in which positions 1 to 31 of mouse CCR1 were substituted with the corresponding … (human; mouse, UniProt P51677 1-31).
T2 construct: expressed on CHO-S cells; End 355 from the stated total length of CCR1; also called CHO-S-NC3-mCCR1 (expressing cells)
T2 sequence: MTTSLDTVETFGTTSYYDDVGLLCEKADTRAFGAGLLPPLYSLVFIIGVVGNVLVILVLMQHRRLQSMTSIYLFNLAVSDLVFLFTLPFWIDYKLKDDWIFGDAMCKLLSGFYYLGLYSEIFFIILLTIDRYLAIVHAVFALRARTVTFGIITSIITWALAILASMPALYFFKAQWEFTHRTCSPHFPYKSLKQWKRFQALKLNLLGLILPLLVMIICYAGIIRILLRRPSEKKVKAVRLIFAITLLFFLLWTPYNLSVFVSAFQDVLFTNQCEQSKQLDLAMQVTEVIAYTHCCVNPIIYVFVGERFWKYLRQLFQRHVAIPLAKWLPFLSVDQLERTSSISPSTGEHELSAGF
Put plainly: flow cytometry on CHO-S-NC3-mCCR1 cells, hybridoma culture supernatant diluted 10-fold.
Text: as §1, §2

The target of test [3] is T3, human CC chemokine receptor 1 (human CCR1) (human, UniProt P32246 1-355).
T3 construct: endogenous on THP-1 cells in the migration assays; also called hCCR1; CHO-S-hCCR1 (expressing cells)
T3 sequence: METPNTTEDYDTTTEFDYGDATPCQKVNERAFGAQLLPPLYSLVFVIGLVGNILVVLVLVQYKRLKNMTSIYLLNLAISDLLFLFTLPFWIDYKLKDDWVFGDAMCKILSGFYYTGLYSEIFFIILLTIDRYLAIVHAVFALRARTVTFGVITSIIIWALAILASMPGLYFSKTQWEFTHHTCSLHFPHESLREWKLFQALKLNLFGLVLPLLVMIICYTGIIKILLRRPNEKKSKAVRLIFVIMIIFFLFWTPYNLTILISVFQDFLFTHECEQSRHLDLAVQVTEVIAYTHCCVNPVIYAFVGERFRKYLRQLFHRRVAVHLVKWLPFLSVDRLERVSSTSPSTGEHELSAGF
Nature of the test: flow cytometry on CHO-S-hCCR1 cells, antibody 3.2 to 10,000 ng/mL, Geomean compared. As to the method: The antigen affinity of the chKM5908′ antibody, which is a VL-substituted chimeric antibody, was measured by flow cytometry using the CHO-S-hCCR1 cells produced in Example 2. The cells were collected by centrifugation, the supernatant was removed, and the cells were suspended in PBS (Staining Medium, hereinafter, abbreviated as SM) containing 2% fetal bovine serum (FBS), 0.05% NaN₃, and 1 mM EDTA. Next, the cells were seeded in a 96-well plate so that the number of cells is 1×10⁵ per well, and the chKM5908′ antibody was added at each final concentration of 10,000, 2,000, 400, 80, 16, and 3.2 ng/mL, and the reaction was performed at 4° C. for 60 minutes. After washing the cells with SM, Goat F (ab′)₂ Anti-Human IgG PE (γ chain specific) (Southern Biotech) diluted 500-fold with SM was added and reacted at 4° C. for 60 minutes. After washing the cells with SM, the cells were resuspended in 50 μL of SM, and the fluorescence intensity was measured by the flow cytometry (FACS Canto II, BD Biosciences).
The data was analyzed by FlowJo 7.65 (Tommy Digital Biology Co., Ltd.), and the binding strength was compared from the Geomean value at each concentration.

B1: KM5955 antibody (antibody, mouse IgG2a, V domains shown)
VH: EVQLVESGGGLVKPGGSLKLSCAASGFTLRDFGMHWVRQVPEKGLEWVAYISSGRTAISYVDKVKGRFTISRDNAKNTLFLQMTSLRSEDTAMYYCARRPYSKSYAMDYWGQGTSVTVSS
VL: DVVLTQTPLSLPVNIGDQASISCKSIKSLLNSDGFTYLDWYLQKPGQSPQLLIYLVSNRFSGVPDRFSGSGSGTDFTLKIRRVEAEDLGVYYCFQSNYLPLTFGAGTKLELK
notes: mouse IgG2a from hybridoma
Turning to B1, the “fluorescence intensity ratio (test antibody + secondary / secondary only)” value in test [1] and in test [2] was under 10 fold in each case.

B2: chKM5908′ antibody (antibody, V domains shown)
VH: QVQLKQSGPGLVQPSQSLSITCTVSGFSLNNYGVHWVRQPPGKGLEWLGVIWSAGTTVYNAAFISRLSISKDDSKSQVFFKMNSLQAGDTAIYYCAKDGSRYYTAMDYWGQGTSVTVSS
VL: DVVMTQTPLSLPVSLGDQASIFCRSSQSLVHRNGITFFHWYLQKPGQSPKLLIYKVSNRFSGVPDRFSGSGSGTDFTLKISRVAPDDLGVYFCSQGTHVPPTFGGGTKLEIK
notes: chimeric; also called VL-substituted chimeric antibody (VH of chKM5908, VL of chKM5914)
In the case of B2, the binding result in test [3] is “binds”.
